Where “and” joins values, the source holds several entries; their conditions need not be identical. Identical values can stand only once.
Tests used:
Assay type in all cases: in vivo, mouse
[1] = Side effects in xenografted NOD/SCID mice (Example 3); conditions: 1 mg/kg or 4 mg/kg intravenous, single dose on Day 0
Description: (§1) The efficacies of two anti-TROP2-MMAE antibody drug conjugates, DP002-HC1LC5-ADC (DAR ˜2) and DP002-HC4LC5-ADC (DAR ˜1.6-2.3), in inhibiting tumor growth in mice bearing human MDA-MB-468 breast adenocarcinoma tumor xenografts were tested. DP002-HC1LC5-ADC comprises an anti-TROP antibody that comprises HC 1 (SEQ ID NO: 52) and LC5 (SEQ ID NO: 62); DP002-HC4LC5-ADC comprises an anti-TROP antibody that comprises HC 4 (SEQ ID NO: 44) and LC5 (SEQ ID NO: 62). Briefly, 48 NOD/SCID mice (female, 6-8 weeks of age) were implanted with 0.1 ml MDA-MB-468 cells (lx 10^7 cell/ml). When the tumors sizes reached above 181 mm^3 (34 days after tumor inoculation), the mice were sorted randomly into 7 groups (6 mice/group) and treated according to the schedule provided in Table 10 below: […]

[2] = tested on: human MDA-MB-468 breast adenocarcinoma tumor xenografts; test: MDA-MB-468 xenograft efficacy in NOD/SCID mice (Example 3); conditions: single dose on Day 0; for T/C (%) / TGI (%): Day 42
Description: as §1

[3] = Body weight and tolerability in xenografted nude mice (Example 4)
Description: (§2) Each mouse was inoculated with 5×10^6 MDA-MB-468 tumor cells (in 0.1 mL, 1:1 with Matrigel) at the right flank by subcutaneous administration under sterile conditions. When the tumors reached a volume of ˜150 mm^3, mice were randomized into one of 7 treatment groups (6 mice per group), as outlined in Table 12, and treatments began. All doses of DP002-HC4LC5-ADC were administered by intravenous injection via tail vein injection.
(§3) Tumor size and animal body weight were measured twice per week. Clinical signs were recorded daily. Tumors were measured using a caliper in two dimensions (i.e., length (a) and width (b)), and tumor volumes were estimated from measurements of the two diameters of the individual tumors as follows: Tumor Volume (mm^3)=(a×b^2)/2.
(§4) Average tumor growth curves for each treatment group were plotted with the observation time on the X-axis, and corresponding tumor volume (geometric mean) on the Y-axis. A two-tailed t-test was used to analyze the statistical significance of any differences between the treatment groups and the control group. Tumor Growth Inhibition (TGI) was calculated after each tumor volume measurement according to the formula: % TGI=(TVcn−TVtn)/TVcn×100, where TVtn and TVcn are the mean tumor Volume of treated and control groups, respectively. Body weight change (CBW %) was calculated after each body weight measurement according to the formula: CBW %=(BWn−BW0)/BW0×100, where BWn is the body weight at day n and BW0 is the body weight at day 0 respectively.

[4] = tested on: xenografted MDA-MB-468 human breast adenocarcinoma tumors; test: MDA-MB-468 xenograft efficacy in female nude mice (Example 4)
Description: The anti-tumor activity of DP002-HC4LC5-ADC was evaluated as a single agent in female nude mice bearing xenografted MDA-MB-468 human breast adenocarcinoma tumors.
as §2, §3, §4

[5] = 2 mg/kg IV Day 0 + 1 mg/kg IV Days 7, 14
[6] = 1 mg/kg IV Days 0, 7, 14, 21, n = 6
[7] = 1 mg/kg IV once on Day 0, n = 6 unless specified
[8] = 2 mg/kg IV Day 0 + 1 mg/kg IV Days 7, 14, n = 6 unless specified
[9] = 2 mg/kg IV once on Day 0, n = 6 unless specified
[10] = 4 mg/kg IV once on Day 0, n = 6 unless specified
[11] = 4 mg/kg IV once on Day 0, outlier animal excluded

B1: DP002-HC4LC5-ADC: anti-TROP2-MMAE antibody drug conjugate (DAR ~1.6-2.3) of antibody with HC4 and LC5 (SEQ ID NO: 62) (conjugate)
VH: EVQLVQSGAEVKKPGESLKISCKGSGYTFTDYSINWVRQMPGKGLEWMGVISTYYGDASYNQKFKGQVTISADKSISTAYLQWSSLKASDTAMYYCARYGDGYNQFDYWGQGTLVTVSS
light: DIQMTQSPSSLSASVGDRVTITCRVSESVDSYGNNFMHWYQQKPGKAPKLLIYRASNLESGVPSRFSGSGSGTDFTFTISSLQPEDIATYYCQQSYEDPYTFGGGTKLEIKRTVAAPSVFIFPPSDEQLKSGTASVVCLLNNFYPREAKVQWKVDNALQSGNSQESVTEQDSKDSTYSLSSTLTLSKADYEKHKVYACEVTHQGLSSPVTKSFNRGEC
modifications: MMAE conjugate
[1]
  side effects based on changes in body weight, survival and gross observations: No obvious side effects
[2]; 1 mg/kg intravenous
  Tumor Size (mm^3) at Day 42, mean ± SEM: 620 ± 61 mm^3
  T/C (%): 82%
  TGI (%): 18%
[2]; 4 mg/kg intravenous
  Tumor Size (mm^3) at Day 42, mean ± SEM: 4 ± 2 mm^3
  average tumor volume on Day 56: 3 mm^3
  T/C (%): 0%
  TGI (%): 100%
[3]; 1 mg/kg IV Days 0, 7, 14, 21
  BWC (%) Day 70 (body weight change vs Day 0): 8.95%
  Body Weight (g, Mean ± SEM) Day 70: 21.70 ± 0.30 g
  Body Weight (g, Mean ± SEM) Day 84: 21.24 ± 0.26 g
  Drug-related Death: 0
  average body weight increase (%) on Day 84 compared to Day 0: 6.66%
  average body weight increase on Day 70 compared to Day 0: 1.76 g
  average body weight increase on Day 84 compared to Day 0: 1.30 g
[3]; 1 mg/kg IV once on Day 0
  BWC (%) Day 70 (body weight change vs Day 0): 15.09%
  Body Weight (g, Mean ± SEM) Day 70: 22.01 ± 0.50 g
  Body Weight (g, Mean ± SEM) Day 84: 22.06 ± 0.64 g
  Drug-related Death: 0
  average body weight increase (%) on Day 84 compared to Day 0: 12.37%
  average body weight increase on Day 70 compared to Day 0: 2.87 g
  average body weight increase on Day 84 compared to Day 0: 2.92 g
[3]; [5]
  BWC (%) Day 70 (body weight change vs Day 0): 8.89%
  Body Weight (g, Mean ± SEM) Day 70: 21.18 ± 0.49 g
  Body Weight (g, Mean ± SEM) Day 84: 21.31 ± 0.46 g
  Drug-related Death: 0
  average body weight increase (%) on Day 84 compared to Day 0: 10.24%
  average body weight increase on Day 70 compared to Day 0: 1.72 g
  average body weight increase on Day 84 compared to Day 0: 1.85 g
[3]; 2 mg/kg IV once on Day 0
  BWC (%) Day 70 (body weight change vs Day 0): 11.00%
  Body Weight (g, Mean ± SEM) Day 70: 21.63 ± 0.39 g
  Body Weight (g, Mean ± SEM) Day 84: 21.75 ± 0.55 g
  Drug-related Death: 0
  average body weight increase (%) on Day 84 compared to Day 0: 10.84%
  average body weight increase on Day 70 compared to Day 0: 2.14 g
  average body weight increase on Day 84 compared to Day 0: 2.26 g
[3]; 4 mg/kg IV once on Day 0
  BWC (%) Day 70 (body weight change vs Day 0): 10.87%
  Body Weight (g, Mean ± SEM) Day 70: 21.72 ± 0.44 g
  Body Weight (g, Mean ± SEM) Day 84: 20.96 ± 0.55 g
  Drug-related Death: 0
  average body weight increase (%) on Day 84 compared to Day 0: 6.99%
  average body weight increase on Day 70 compared to Day 0: 2.13 g
  average body weight increase on Day 84 compared to Day 0: 1.37 g
[3]; maximum cumulative dose of 4 mg/kg IV (single or split doses)
  tolerability in mice: well tolerated
[4]; 1 mg/kg IV Days 0, 7, 14, 21
  % TGI Day 70: 85.88%
  % of mice with tumor regression at the end of the study: 30%
  Tumor Volume (mm^3, Mean ± SEM) Day 70: 191.51 mm^3 and 192.51 ± 91.38*** mm^3
  Tumor Weight (g, Mean ± SEM) Day 84: 0.421 ± 0.218 g
[4]; [6]
  Number of mice demonstrating full tumor regression at Week 4 following first dose: 1
  Number of mice demonstrating full tumor regression at Week 5 following first dose: 1
  Number of mice demonstrating full tumor regression at Week 6 following first dose: 1
  Number of mice demonstrating full tumor regression at Week 7 following first dose: 2
  Number of mice demonstrating full tumor regression at Week 8 following first dose: 2
  Number of mice demonstrating full tumor regression at Week 9 following first dose: 2
  Number of mice demonstrating full tumor regression at Week 10 following first dose: 2
  Number of mice demonstrating full tumor regression at Week 11 following first dose: 2/6 and 2
  Number of mice demonstrating full tumor regression at Week 12 following first dose: 2
[4]; 1 mg/kg IV once on Day 0
  % TGI Day 70: 62.16%
  Tumor Volume (mm^3, Mean ± SEM) Day 70: 515.77 mm^3 and 515.77 ± 127.38*** mm^3
  Tumor Weight (g, Mean ± SEM) Day 84: 0.658 ± 0.165 g
[4]; 1 mg/kg IV once on Day 0, animals euthanized Day 77
  Tumor Weight (g, Mean ± SEM) Day 77: 0.972 ± 0.165 g
[4]; [7]
  Number of mice demonstrating full tumor regression at Week 4 following first dose: 0
  Number of mice demonstrating full tumor regression at Week 5 following first dose: 0
  Number of mice demonstrating full tumor regression at Week 6 following first dose: 0
  Number of mice demonstrating full tumor regression at Week 7 following first dose: 0
  Number of mice demonstrating full tumor regression at Week 8 following first dose: 0
  Number of mice demonstrating full tumor regression at Week 9 following first dose: 0
  Number of mice demonstrating full tumor regression at Week 10 following first dose: 0
  Number of mice demonstrating full tumor regression at Week 11 following first dose: 0
  Number of mice demonstrating full tumor regression at Week 12 following first dose: 0 (n = 4)
[4]; [5]
  % TGI Day 70: 87.61%
  % of mice with tumor regression at the end of the study: 100%
  Tumor Volume (mm^3, Mean ± SEM) Day 70: 168.94 mm^3 and 168.94 ± 168.94*** mm^3
  Tumor Weight (g, Mean ± SEM) Day 84: 0.000 ± 0.000 g
[4]; 2 mg/kg IV Day 0 + 1 mg/kg IV Days 7, 14, animal euthanized Day 77
  Tumor Weight (g, Mean ± SEM) Day 77: 0.749 g
[4]; [8]
  Number of mice demonstrating full tumor regression at Week 4 following first dose: 5
  Number of mice demonstrating full tumor regression at Week 5 following first dose: 5
  Number of mice demonstrating full tumor regression at Week 6 following first dose: 5
  Number of mice demonstrating full tumor regression at Week 7 following first dose: 5
  Number of mice demonstrating full tumor regression at Week 8 following first dose: 5
  Number of mice demonstrating full tumor regression at Week 9 following first dose: 5
  Number of mice demonstrating full tumor regression at Week 10 following first dose: 5
  Number of mice demonstrating full tumor regression at Week 11 following first dose: 5/6 and 5
  Number of mice demonstrating full tumor regression at Week 12 following first dose: 5 (n = 5)
[4]; 2 mg/kg IV once on Day 0
  % TGI Day 70: 89.74%
  % of mice with tumor regression at the end of the study: 20%
  Tumor Volume (mm^3, Mean ± SEM) Day 70: 139.85 mm^3 and 139.85 ± 99.80*** mm^3
  Tumor Weight (g, Mean ± SEM) Day 84: 0.089 ± 0.048 g
[4]; 2 mg/kg IV once on Day 0, animal euthanized Day 77
  Tumor Weight (g, Mean ± SEM) Day 77: 1.004 g
[4]; [9]
  Number of mice demonstrating full tumor regression at Week 4 following first dose: 2
  Number of mice demonstrating full tumor regression at Week 5 following first dose: 2
  Number of mice demonstrating full tumor regression at Week 6 following first dose: 2
  Number of mice demonstrating full tumor regression at Week 7 following first dose: 2
  Number of mice demonstrating full tumor regression at Week 8 following first dose: 2
  Number of mice demonstrating full tumor regression at Week 9 following first dose: 2
  Number of mice demonstrating full tumor regression at Week 10 following first dose: 2
  Number of mice demonstrating full tumor regression at Week 11 following first dose: 2/6 and 2
  Number of mice demonstrating full tumor regression at Week 12 following first dose: 1 (n = 5)
[4]; 4 mg/kg IV as a single dose on Day 0
  % of mice with tumor regression at the end of the study: 66%
[4]; 4 mg/kg IV once on Day 0
  % TGI Day 70: 78.49%
  Tumor Volume (mm^3, Mean ± SEM) Day 70: 293.26 mm^3 and 293.26 ± 288.40** mm^3
  Tumor Weight (g, Mean ± SEM) Day 84: 0.346 ± 0.341 g
[4]; [10]
  Number of mice demonstrating full tumor regression at Week 4 following first dose: 4
  Number of mice demonstrating full tumor regression at Week 5 following first dose: 4
  Number of mice demonstrating full tumor regression at Week 6 following first dose: 4
  Number of mice demonstrating full tumor regression at Week 7 following first dose: 4
  Number of mice demonstrating full tumor regression at Week 8 following first dose: 4
  Number of mice demonstrating full tumor regression at Week 9 following first dose: 4
  Number of mice demonstrating full tumor regression at Week 10 following first dose: 4
  Number of mice demonstrating full tumor regression at Week 11 following first dose: 4/6 and 4
  Number of mice demonstrating full tumor regression at Week 12 following first dose: 4
[4]; [11]
  TGI on Day 70, excluding the outlier: 99.64%
  average tumor size on Day 70, excluding the outlier: 4.89 mm^3

Reference: patent publication US12458818B2, “Anti-trophoblast cell surface antigen 2 (TROP2) antibodies and antibody drug conjugates comprising same” (CSPC MEGALITH BIOPHARMACEUTICAL CO., LTD., priority 2019, dated 2025)
